Measurements as given in patent publication US20250188186A1.

How the values were obtained:
[1] = biological target: GST-tagged human FcRn-β2m (human) (UniProt P55899); assay: ELISA, antibody immobilized, FcRn titrated (the concentration is that of FcRn), anti-FLAG-HRP, pH 6.0 [pH 6.0]
[2] = biological target: human FcγRIIb ectodomain, N-terminal AVI and C-terminal His tags (human) (UniProt P31994); assay: BLI, antibody on FAB2G tips, FcγRIIb in solution, pH 6.5, steady-state Kd,SS
[3] = biological target: human FcγRIIa R131 ectodomain, N-terminal AVI and C-terminal His tags (human) (UniProt P12318); assay: BLI, antibody on FAB2G tips, FcγRIIa R131 in solution, pH 7.4, steady-state Kd,SS
Sequence of human FcγRIIa R131 ectodomain, N-terminal AVI and C-terminal His tags (human) (P12318 34-217 H167R): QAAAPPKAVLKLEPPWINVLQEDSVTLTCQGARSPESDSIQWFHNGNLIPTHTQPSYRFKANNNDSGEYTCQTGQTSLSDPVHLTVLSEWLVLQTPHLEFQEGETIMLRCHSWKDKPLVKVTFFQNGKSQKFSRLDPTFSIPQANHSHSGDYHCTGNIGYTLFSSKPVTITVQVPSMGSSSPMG

[4] = biological target: human FcγRIIa H131 ectodomain, N-terminal AVI and C-terminal His tags (human) (UniProt P12318); assay: BLI, antibody on FAB2G tips, FcγRIIa H131 in solution, pH 6.5, steady-state Kd,SS
Sequence of human FcγRIIa H131 ectodomain, N-terminal AVI and C-terminal His tags (human) (P12318 34-217): as the sequence (P12318 34-217 H167R) above, with R134H counted along it

[5] = biological target: human FcγRIIa H131 ectodomain, N-terminal AVI and C-terminal His tags (human) (UniProt P12318); assay: BLI, antibody on FAB2G tips, FcγRIIa H131 in solution, pH 7.4, steady-state Kd,SS
[6] = biological target: human FcγRIIIa F158 ectodomain, N-terminal AVI and C-terminal His tags (human) (UniProt P08637); assay: BLI, antibody on FAB2G tips, FcγRIIIa F158 in solution, pH 6.5, kinetic Kd
Sequence of human FcγRIIIa F158 ectodomain, N-terminal AVI and C-terminal His tags (human) (P08637 17-208): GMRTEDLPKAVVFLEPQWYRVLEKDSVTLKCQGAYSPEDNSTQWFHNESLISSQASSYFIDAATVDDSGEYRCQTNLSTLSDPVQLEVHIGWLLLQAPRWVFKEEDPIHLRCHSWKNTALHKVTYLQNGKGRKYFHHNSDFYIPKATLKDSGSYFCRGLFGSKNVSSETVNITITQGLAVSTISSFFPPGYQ

[7] = biological target: human FcγRIIa R131 ectodomain, N-terminal AVI and C-terminal His tags (human) (UniProt P12318); assay: BLI, antibody on FAB2G tips, FcγRIIa R131 in solution, pH 6.5, steady-state Kd,SS
[8] = biological target: human FcγRIIIa F158 ectodomain, N-terminal AVI and C-terminal His tags (human) (UniProt P08637); assay: BLI, antibody on FAB2G tips, FcγRIIIa F158 in solution, pH 6.5, steady-state Kd,SS (Langmuir fit)
[9] = biological target: FcγRIIIa allele V158 on NK-92 effector cells (human) (UniProt P08637); assay: cell-based or functional assay
Sequence of FcγRIIIa allele V158 on NK-92 effector cells (human) (P08637 17-254 F176V): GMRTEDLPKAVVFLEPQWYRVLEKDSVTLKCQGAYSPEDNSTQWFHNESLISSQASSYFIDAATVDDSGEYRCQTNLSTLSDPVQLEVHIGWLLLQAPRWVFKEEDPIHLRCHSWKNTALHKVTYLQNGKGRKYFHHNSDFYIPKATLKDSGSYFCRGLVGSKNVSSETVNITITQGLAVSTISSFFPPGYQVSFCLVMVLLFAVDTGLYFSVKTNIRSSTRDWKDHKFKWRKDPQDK

[10] = biological target: human FcγRIIIa F158 ectodomain, N-terminal AVI and C-terminal His tags (human) (UniProt P08637); assay: BLI, antibody on FAB2G tips, FcγRIIIa F158 in solution, pH 7.4, kinetic Kd
[11] = biological target: human FcγRIIb ectodomain, N-terminal AVI and C-terminal His tags (human) (UniProt P31994); assay: BLI, antibody on FAB2G tips, FcγRIIb in solution, pH 7.4, steady-state Kd,SS
[12] = biological target: human FcγRIIIa F158 ectodomain, N-terminal AVI and C-terminal His tags (human) (UniProt P08637); assay: BLI, antibody on FAB2G tips, FcγRIIIa F158 in solution, pH 7.4, steady-state Kd,SS (Langmuir fit)

Sequence of human FcγRIIb ectodomain, N-terminal AVI and C-terminal His tags (human) (P31994 43-217): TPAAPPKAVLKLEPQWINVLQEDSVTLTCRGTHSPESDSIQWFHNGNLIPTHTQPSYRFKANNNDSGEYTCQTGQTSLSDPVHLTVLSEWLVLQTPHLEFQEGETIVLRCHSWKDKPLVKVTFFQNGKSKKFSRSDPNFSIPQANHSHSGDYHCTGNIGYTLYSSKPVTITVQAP

EC50 (read off the curve) [1] [µg/mL] | Kd [2] [nM] | Kd [3] [nM] | Kd [4] [nM] | Kd [5] [nM] | Kd [6] [nM] | Kd [7] [nM] | Kd [8] [nM] | ADCC EC50, SKBR3 target cells, NK-92 (V158) effector cells, pH 6.5 [9] [ng/mL] | ADCC EC50, SKBR3 target cells, NK-92 (V158) effector cells, pH 7.4 [9] [ng/mL] | ADCC: lysis of calcein-loaded SKOV3 target cells, 50 ng/mL antibody, E:T 10:1, 4 h, pH 6.5 [9] [%] | ADCC: lysis of calcein-loaded SKOV3 target cells, 50 ng/mL antibody, E:T 10:1, 4 h, pH 7.4 [9] [%] | Kd [10] [nM] | Kd [11] [nM] | Kd [12] [nM] | Substance
0.01 |  |  |  |  |  |  |  |  |  |  |  |  |  |  | hu4D5 antibody with M252Y/S254T/T256E (YTE) Fc
 | 112 | 37.1 | 331 | 497 | 538 | 37.1 | 603 | 121 | 2310 | 47.6 | 19.5 | 909 | 109 | 1090 | hu4D5 antibody with acid-Fc (S267E, H268D, Y296H)
